Measured values taken from the supplement of paper PMC9233669.
Variants at the floor of the assay were thinned out.

How the values were obtained:
biotinyl-Phe-oxazolone = experiment: self-aminoacylation, catalytic enhancement (BFO) (fold over background); higher = more active; k-Seq, kA / k0A0; sequences stand for … in GGGAAUGGAUCCACAUCUACGAAUUC…UUCACUGCAGACUUGACGAAGCUG
Outline: (§1)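 Catalytic enhancement equals the median kA over the uncatalyzed rate, the latter read from the low-activity peak of a bimodal Gaussian fit. Values of kA came from fitting each sequence's fraction reacted to a pseudo-first-order model, with 1000 bootstraps. Reacted RNA was captured with streptavidin and quantified by triplicate qPCR and Illumina sequencing after 90 minutes at room temperature with 2–1250 μM biotinyl-aminoacyl-oxazolone and 0.43 μM mutagenized RNA pools bearing a 21-nt variable region.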

biotinyl-Ile-oxazolone = experiment: self-aminoacylation, catalytic enhancement (BIO) (fold over background); higher = more active; k-Seq, kA / k0A0; sequences stand for … in GGGAAUGGAUCCACAUCUACGAAUUC…UUCACUGCAGACUUGACGAAGCUG
Outline: as §1

biotinyl-Met-oxazolone = experiment: self-aminoacylation, catalytic enhancement (BMO) (fold over background); higher = more active; k-Seq, kA / k0A0; sequences stand for … in GGGAAUGGAUCCACAUCUACGAAUUC…UUCACUGCAGACUUGACGAAGCUG
Outline: as §1

biotinyl-Val-oxazolone = experiment: self-aminoacylation, catalytic enhancement (BVO) (fold over background); higher = more active; k-Seq, kA / k0A0; sequences stand for … in GGGAAUGGAUCCACAUCUACGAAUUC…UUCACUGCAGACUUGACGAAGCUG
Outline: as §1

biotinyl-Leu-oxazolone = experiment: self-aminoacylation, catalytic enhancement (BLO) (fold over background); higher = more active; k-Seq, kA / k0A0; sequences stand for … in GGGAAUGGAUCCACAUCUACGAAUUC…UUCACUGCAGACUUGACGAAGCUG
Outline: as §1

biotinyl-Trp-oxazolone = experiment: self-aminoacylation, catalytic enhancement (BWO) (fold over background); higher = more active; k-Seq, kA / k0A0; sequences stand for … in GGGAAUGGAUCCACAUCUACGAAUUC…UUCACUGCAGACUUGACGAAGCUG
Outline: as §1

| Sequence | self-aminoacylation (biotinyl-Phe-oxazolone) | self-aminoacylation (biotinyl-Ile-oxazolone) | self-aminoacylation (biotinyl-Met-oxazolone) | self-aminoacylation (biotinyl-Val-oxazolone) | self-aminoacylation (biotinyl-Leu-oxazolone) | self-aminoacylation (biotinyl-Trp-oxazolone) |
| --- | --- | --- | --- | --- | --- | --- |
| CCACACAUCAAGCAAUCGUUC [Fam1B.1 aminoacylation ribozyme variant] | 0.673 | 0.807 | 0.617 | 0.783 | 0.722 | 0.543 |
| AUGACCCUGGUCAUUGAGUGA [Fam2.1 aminoacylation ribozyme variant] | 49.8 | 3.61 | 7.27 | 3 | 7.74 | 7.49 |
| AAGUUUGCUACUAGUCGCAUG [Fam3.1 aminoacylation ribozyme variant] | 1.11 | 0.915 | 0.717 | 1.09 | 0.707 | 0.836 |
| CUACUCCGAACAAUCGGUCUG [Fam1A.1 aminoacylation ribozyme variant] | 0.826 | 0.847 | 0.668 | 0.812 | 0.889 | 0.806 |
| AAGUUUGUUAAUAGUCGCAAU [Fam3.1 aminoacylation ribozyme variant] | 2.29 | 1.73 | 1.5 | 1.45 | 1.51 | 1.94 |
| AUUCACCAAAGUCAUCGGGUG [Fam2.2 aminoacylation ribozyme variant] | 110 | 9.57 | 15.3 | 8.23 | 19.5 | 13.6 |
| UUUACCCUGGUCAGCGAGUGA [Fam2.1 aminoacylation ribozyme variant] | 16.3 | 3.46 | 5.62 | 2.96 | 5.43 | 7.06 |
| GUUCACCUAGGUCAUCGGCUG [Fam2.2 aminoacylation ribozyme variant] | 7.17 | 1.67 | 1.49 | 1.98 | 2.04 | 1.97 |
| UUUCACCUAGGUCAUCGGAUG [Fam2.2 aminoacylation ribozyme variant] | 0.842 | 1.1 | 0.898 | 1.36 | 0.998 | 1.12 |
| UUUAUCCUGGUCAUCGAGUGA [Fam2.1 aminoacylation ribozyme variant] | 10.2 | 5.25 | 8.6 | 4.7 | 9.68 | 11.3 |
| CCACACUUCACGCAAACGGUC [Fam1B.1 aminoacylation ribozyme variant] | 0.827 | 0.736 | 0.793 | 0.995 | 0.861 | 0.98 |
| AUUACCCUGAACAUCGAGUGA [Fam2.1 aminoacylation ribozyme variant] | 24.2 | 3.4 | 6.65 | 3.35 | 6.97 | 8.05 |
| CUACUUCAAAAAAUCAGUCUG [Fam1A.1 aminoacylation ribozyme variant] | 5.75 | 0.841 | 0.744 | 0.754 | 0.804 | 2.61 |
| CUACUUCCAACAAUCCGUCUG [Fam1A.1 aminoacylation ribozyme variant] | 0.668 | 0.794 | 0.771 | 0.886 | 0.999 | 0.524 |
| UUUCACCUAGGUCAUGGGGUG [Fam2.2 aminoacylation ribozyme variant] | 29.1 | 3.19 | 3.8 | 2.96 | 4.07 | 4.25 |
| CCACAGUUCAAGCAAUCCGUC [Fam1B.1 aminoacylation ribozyme variant] | 1.11 | 1.19 | 1.13 | 1.2 | 1.16 | 1.04 |
| CUACUUCAAAAAAUCGGUGUG [Fam1A.1 aminoacylation ribozyme variant] | 1.89 | 0.889 | 0.946 | 0.814 | 1.31 | 1.53 |
| AUUAACCUAGGUCAGCGGGUG [Fam2.2 aminoacylation ribozyme variant] | 19 | 2.5 | 2.59 | 2.12 | 4.4 | 2.72 |
| AUAACCCUGUUCAUCGAGUGA [Fam2.1 aminoacylation ribozyme variant] | 12.6 | 2.21 | 3.8 | 2.18 | 3.97 | 4.29 |
| AUUCACCUCGGGCAUCGGGUG [Fam2.2 aminoacylation ribozyme variant] | 34.5 | 3.71 | 5.94 | 5.1 | 6.03 | 5.56 |
| AUUCACCUAGGUCAUUGGGGG [Fam2.2 aminoacylation ribozyme variant] | 1.27 | 2.45 | 2.67 | 2.06 | 2.77 | 3.03 |
| AUUCACCUAGCUAAUCGGGUG [Fam2.2 aminoacylation ribozyme variant] | 4.49 | 1.6 | 1.93 | 1.62 | 2.05 | 1.85 |
| CCAGACUUCAAGCAAUCGGCC [Fam1B.1 aminoacylation ribozyme variant] | 17 | 3.33 | 4.19 | 3.43 | 4.53 | 6.87 |
| AUUUCCCCGGUCAUCGAGUGA [Fam2.1 aminoacylation ribozyme variant] | 32.5 | 3.34 | 5.69 | 3.65 | 5.8 | 8.04 |
| AUUACCCUGGACAUCGAUUGA [Fam2.1 aminoacylation ribozyme variant] | 0.447 | 0.804 | 0.785 | 0.863 | 0.831 | 0.675 |
| CCACACUUCAAUCAAUAGGUC [Fam1B.1 aminoacylation ribozyme variant] | 1.11 | 0.573 | 0.569 | 0.646 | 0.517 | 0.511 |

| Sequence | self-aminoacylation (biotinyl-Phe-oxazolone) | self-aminoacylation (biotinyl-Ile-oxazolone) | self-aminoacylation (biotinyl-Met-oxazolone) | self-aminoacylation (biotinyl-Val-oxazolone) | self-aminoacylation (biotinyl-Leu-oxazolone) | self-aminoacylation (biotinyl-Trp-oxazolone) |
| --- | --- | --- | --- | --- | --- | --- |
| CUACUUCAAGCAACCGGUCUG [Fam1A.1 aminoacylation ribozyme variant] | 1.06 | 0.883 | 0.943 | 0.837 | 0.947 | 0.799 |
| CCACAGUUCAAGCAAUCGUUC [Fam1B.1 aminoacylation ribozyme variant] | 0.594 | 0.771 | 0.742 | 0.845 | 0.743 | 0.472 |
| AAGUAUGCUAAUAGUAGCAAG [Fam3.1 aminoacylation ribozyme variant] | 1.46 | 1.53 | 1.22 | 1.46 | 1.54 | 0.882 |
| CUACUUCAAACCAUAGGUCUG [Fam1A.1 aminoacylation ribozyme variant] | 0.985 | 0.807 | 0.47 | 0.809 | 0.615 | 0.487 |
| CCACACUUCAAGCUCUCGGUC [Fam1B.1 aminoacylation ribozyme variant] | 0.716 | 1.21 | 1.14 | 1.42 | 1.25 | 1.1 |
| AUUCACCUUGGACAUCGGGUG [Fam2.2 aminoacylation ribozyme variant] | 17.1 | 2.51 | 3.51 | 3.24 | 3.37 | 2.97 |
| AUUCACCUAGGUCAGCGGGUA [Fam2.2 aminoacylation ribozyme variant] | 10.5 | 2.12 | 2.18 | 2.08 | 3.01 | 2.05 |
| CUAAUUCAAACAAUCGGUCUU [Fam1A.1 aminoacylation ribozyme variant] | 2.49 | 0.743 | 0.695 | 0.716 | 0.629 | 1.32 |
| GUUCACCUAUGUCAUCGGGUG [Fam2.2 aminoacylation ribozyme variant] | 21.4 | 3.1 | 4.03 | 3.31 | 5.63 | 4.3 |
| CUUACCCUGAUCAUCGAGUGA [Fam2.1 aminoacylation ribozyme variant] | 16.5 | 3.64 | 7.49 | 3.94 | 7.51 | 9.22 |
| GAACACUUCAAGCAAUCGGUC [Fam1B.1 aminoacylation ribozyme variant] | 23.3 | 2.05 | 1.53 | 2.03 | 1.96 | 18.6 |
| AUUACCCUGGUGAUCGAGAGA [Fam2.1 aminoacylation ribozyme variant] | 0.65 | 1.33 | 1.24 | 0.92 | 0.908 | 0.417 |
| CCACACUUCAAUCAAUCGGUU [Fam1B.1 aminoacylation ribozyme variant] | 7.61 | 1.47 | 1.16 | 1.21 | 1.34 | 5.87 |
| AAGUUUCCUAAGAGUCGCAAG [Fam3.1 aminoacylation ribozyme variant] | 1.17 | 1.29 | 1.04 | 1.31 | 1.24 | 0.936 |
| AUGCACCUAGGUCAUCGGCUG [Fam2.2 aminoacylation ribozyme variant] | 11 | 1.99 | 2.3 | 2.2 | 1.83 | 2.5 |
| CGACUUCACACAAUCGGUCUG [Fam1A.1 aminoacylation ribozyme variant] | 1.07 | 1.05 | 0.934 | 1.14 | 1.23 | 1.01 |
| AUUUCCCUGGUCAUAGAGUGA [Fam2.1 aminoacylation ribozyme variant] | 61.5 | 4.67 | 9.7 | 4.88 | 9.78 | 12.2 |
| AUUCACCUAGGCCAUCGGGUG [Fam2.2 aminoacylation ribozyme variant] | 28.6 | 3.04 | 4.47 | 3.45 | 5.51 | 4.09 |
| AUUACCGUGGUCAUUGAGUGA [Fam2.1 aminoacylation ribozyme variant] | 28.2 | 3.37 | 5.36 | 3.21 | 6 | 7.1 |
| CUAAUUCACACAAUCGGUCUG [Fam1A.1 aminoacylation ribozyme variant] | 0.759 | 0.912 | 0.874 | 0.771 | 0.85 | 0.598 |
| AAGUUUGCUAAUAGGCGCUAG [Fam3.1 aminoacylation ribozyme variant] | 0.86 | 0.648 | 0.723 | 0.722 | 0.647 | 0.561 |
| AUUAACCUAGGUCACCGGGUG [Fam2.2 aminoacylation ribozyme variant] | 23.6 | 3.19 | 4.09 | 3.13 | 4.52 | 5.15 |
| GGUCACCUAGGUCAUCGGGUG [Fam2.2 aminoacylation ribozyme variant] | 30.3 | 4.07 | 4.37 | 5.01 | 3.98 | 6.88 |
| CCACACUACAAGCAUUCGGUC [Fam1B.1 aminoacylation ribozyme variant] | 3.61 | 2.14 | 2.58 | 2.71 | 1.73 | 2.04 |
| AUUAACCUGGUCAUCGAGUGA [Fam2.1 aminoacylation ribozyme variant] | 8.46 | 3.97 | 7.3 | 4.02 | 7.64 | 8.57 |
